Where a chain is given by its changes, count along the chain named.
B1: human ELP1 N-terminal truncation, residues 715-1332 (ELP1_(715-1332)) (domain or fragment, UniProt O95163 715-1332, looked up)
chain: NLEVVHHRALVLAQIRKWLDKLMFKEAFECMRKLRINLNLIYDHNPKVFLGNVETFIKQIDSVNHINLFFTELKEEDVTKTMYPAPVTSSVYLSRDPDGNKIDLVCDAMRAVMESINPHKYCLSILTSHVKKTTPELEIVLQKVHELQGNAPSDPDAVSAEEALKYLLHLVDVNELYDHSLGTYDFDLVLMVAEKSQKDPKEYLPFLNTLKKMETNYQRFTIDKYLKRYEKAIGHLSKCGPEYFPECLNLIKDKNLYNEALKLYSPSSQQYQDISIAYGEHLMQEHMYEPAGLMFARCGAHEKALSAFLTCGNWKQALCVAAQLNFTKDQLVGLGRTLAGKLVEQRKHIDAAMVLEECAQDYEEAVLLLLEGAAWEEALRLVYKYNRLDIIETNVKPSILEAQKNYMAFLDSQTATFSRHKKRLLVVRELKEQAQQAGLDDEVPHGQESDLFSETSSVVSGSEMSGKYSHSNSRISARSSKNRRKAERKKHSLKEGSPLEDLALLEALSEVVQNTENLKDEVYHILKVLFLFEFDEQGRELQKAFEDTLQLMERSLPEIWTLTYQQNSATPVLGPNSTANSIMASYQQQKTSVPVLDAELFIPPKINRRTQWKLSLLD
notes: ELP1, Homo sapiens, UniProt O95163, amino acids 715 to 1332; cloned with NcoI and XhoI into pETM11; also called ELP1CT; ELP1 C-terminal construct; source: E. coli BL21 pRARE, purified (NiNTA, S200 gel filtration)
B2: human ELP1_(715-1332)K815T (domain or fragment, UniProt O95163 715-1332, looked up)
chain: B1 chain with K101T
notes: ELP1, Homo sapiens, UniProt O95163, amino acids 715 to 1332, with the patient variant p.Lys815Thr; Patient-derived variant (c.2444A>C; p.Lys815Thr); PDB 5CQR is the wild-type parent; also called ELP1K815T C-terminal construct; source: E. coli BL21 pRARE, purified (NiNTA, S200 gel filtration)

How the values were obtained:
[1] = tested on: ELP1 K815T;ELP2;ELP3 (Homo sapiens;Homo sapiens;Homo sapiens); experiment: MST; conditions: curve did not reach plateau; authors state actual affinity is likely lower; none (in vitro transcribed); MST: 14 nM Cy5-tRNA, ELP123 from 1.5 uM in serial dilution, 20 mM HEPES pH 7.5, 100 mM NaCl, 5 mM DTT, 0.05% Tween 20; incubated 30 min at 4 C, measured at …
[2] = tested on: ELP1 (wild type);ELP2;ELP3 (Homo sapiens;Homo sapiens;Homo sapiens); experiment: MST; conditions: none (in vitro transcribed); MST: 14 nM Cy5-tRNA, ELP123 from 1.5 uM in serial dilution, 20 mM HEPES pH 7.5, 100 mM NaCl, 5 mM DTT, 0.05% Tween 20; incubated 30 min at 4 C, measured at …
[3] = target: the molecule itself; experiment: SEC; purified ELP1_(715-1332) proteins on a S200 10/300 increase gel filtration column with calibration standards; fractions on 12% SDS-PAGE, Coomassie

Row | Molecule | Kd [1] [nM] | Kd [2] [nM] | binding result [3]
1 | tRNAGlnUUG | 150 | 50 | 
2 | B1 |  |  | binds
3 | B2 |  |  | binds
